PMC9905677

Tests used:
rituximab-Fab (human) = test: NMR titration; 1H-15N HSQC peak intensity attenuation of the 15N-labeled protein (rituximab-Fc 120 μM, rituximab-Fab 240 μM, sFcγRIIIb 120 μM) on adding serum polyclonal IgG 120 μM, its Fab 240 μM or HSA 600 μM; 5 mM sodium phosphate, 50 mM NaCl, pH 7.4, 37°C
[1] = molecular target: soluble form of human FcγRIIIb (NA2 form) composed of the extracellular domains (human) (UniProt O75015); test: as above
[2] = molecular target: extracellular region of human FcγRIIIa (158V allele), bis-glycosylated (human) (UniProt P08637)

UniProt O75015, sequence (O75015 17-200): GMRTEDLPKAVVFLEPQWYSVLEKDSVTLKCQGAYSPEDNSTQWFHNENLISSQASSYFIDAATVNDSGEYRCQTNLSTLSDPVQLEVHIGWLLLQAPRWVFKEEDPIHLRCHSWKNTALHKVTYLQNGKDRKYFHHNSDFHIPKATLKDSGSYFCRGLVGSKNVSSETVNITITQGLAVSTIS

| average level of HSQC peak intensity attenuation (Io-Ip)/Io (rituximab-Fab (human)) | average level of HSQC peak intensity attenuation (Io-Ip)/Io [1] | EC50 of the ADCC reporter assay (Jurkat/FcγRIIIa/NFAT-Luc effector cells, luciferase) [2] | Substance |
| --- | --- | --- | --- |
| 0.6 | 0.41 | – | human serum albumin (from UniProt P02768 25-609) (natural protein) |
| – | – | 0.02 µg/mL | rituximab (antibody) |
